Here are results for two molecules from US20090271163A1 (published 2009).

Series [1] addresses T1, heavy chain of B-domain deleted human Factor VIII (A1-A2 domains) (human, UniProt P00451 20-1667, oligosaccharide observed linked to Asn 239).
T1 construct: Residues 17-43, 334-376 and 714-754 were not modeled; also called A1-a1-A2-a2
T1 sequence (heavy): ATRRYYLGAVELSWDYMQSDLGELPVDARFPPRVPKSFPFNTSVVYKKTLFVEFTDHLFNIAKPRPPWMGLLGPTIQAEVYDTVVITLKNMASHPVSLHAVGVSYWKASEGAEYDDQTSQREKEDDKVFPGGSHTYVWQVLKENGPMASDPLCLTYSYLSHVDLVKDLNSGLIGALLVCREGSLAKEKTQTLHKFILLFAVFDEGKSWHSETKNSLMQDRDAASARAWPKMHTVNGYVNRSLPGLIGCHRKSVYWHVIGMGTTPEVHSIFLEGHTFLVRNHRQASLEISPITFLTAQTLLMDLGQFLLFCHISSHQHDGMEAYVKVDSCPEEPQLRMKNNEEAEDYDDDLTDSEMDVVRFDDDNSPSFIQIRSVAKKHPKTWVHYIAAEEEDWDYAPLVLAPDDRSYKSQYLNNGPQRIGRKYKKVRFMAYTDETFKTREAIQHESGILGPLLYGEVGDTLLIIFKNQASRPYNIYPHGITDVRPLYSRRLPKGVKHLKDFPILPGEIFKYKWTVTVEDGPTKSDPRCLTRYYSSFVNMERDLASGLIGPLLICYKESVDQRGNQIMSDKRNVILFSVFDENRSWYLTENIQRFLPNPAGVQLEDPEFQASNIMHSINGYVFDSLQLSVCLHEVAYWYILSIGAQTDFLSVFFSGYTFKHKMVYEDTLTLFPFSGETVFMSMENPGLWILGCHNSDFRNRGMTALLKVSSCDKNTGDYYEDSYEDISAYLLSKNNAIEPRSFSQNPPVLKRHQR
The series can be described thus: X-ray crystal structure. An excerpt:
X-ray diffraction data of Factor VIII crystals were collected at the NE-CAT synchrotron beamline ID-24 of the Advanced Photon Source (APS) at Argonne National Laboratory. All xray data were processed using program HKL2000 (Otwinowski, Z. & Minor, W. (1997) in Methods Enzymol (Academic Press, New York), Vol. 276, pp. 307-326) (Table 1).
For structural determination using the molecular replacement method, a homology structure model of Factor VIII was constructed from the known primary sequence of Factor VIII (McCoy, A. J. (2007) Acta Crystallogr D Biol Crystallogr 63, 32-41). Using the template structures of Factor Vai (PDBID: […]) (Sandberg, H., Almstedt, A., Brandt, J., Castro, V. M., Gray, E., Holmquist, L., Lewin, M., Oswaldsson, U., Mikaelsson, M., Jankowski, M. A., Bond, M. & Scoble, H. A. (2001) Semin Hematol 38, 4-12) and ceruloplasmin (PDBID: 1KCW) (Adams, T. E., Hockin, M. F., Mann, K. G. & Everse, S. J. (2004) Proc Natl Acad Sci U SA 101, 8918-23), the structure of the A1 and A2 domains of Factor VIII were initially determined with AMoRe (Murshudov, G. N., Vagin, A. A. & Dodson, E. J. (1997) Acta Crystallogr D Biol Crystallogr 53, 240-55) using the structure of the A1 and A2 domains of the homology model. This yielded clear rotation function and translation function solutions. […]

Series [2] deals with the molecule itself. The series can be described thus: X-ray crystal structure, crystal contact.

B1: light chain of B-domain deleted human Factor VIII (A3-C1-C2 domains) (other)
light: EITRTTLQSDQEEIDYDDTISVEMKKEDFDIYDEDENQSPRSFQKKTRHYFIAAVERLWDYGMSSSPHVLRNRAQSGSVPQFKKVVFQEFTDGSFTQPLYRGELNEHLGLLGPYIRAEVEDNIMVTFRNQASRPYSFYSSLISYEEDQRQGAEPRKNFVKPNETKTYFWKVQHHMAPTKDEFDCKAWAYFSDVDLEKDVHSGLIGPLLVCHTNTLNPAHGRQVTVQEFALFLTIFDETKSWYFTENMERNCRAPCNIQMEDPTFKENYRFHAINGYIMDTLPGLVMAQDQRIRWYLLSMGSNENIHSIHFSGHVFTVRKKEEYKMALYNLYPGVFETVEMLPSKAGIWRVECLIGEHLHAGMSTLFLVYSNKCQTPLGMASGHIRDFQITASGQYGQWAPKLARLHYSGSINAWSTKEPFSWIKVDLLAPMIIHGIKTQGARQKFSSLYISQFIIMYSLDGKKWQTYRGNSTGTLMVFFGNVDSSGIKHNIFNPPIIARYIRLHPTHYSIRSTLRMELMGCDLNSCSMPLGMESKAISDAQITASSYFTNMFATWSPSKARLHLQGRSNAWRPQVNNPKEWLQVDFQKTMKVTGVTTQGVKSLLTSMYVKEFLISSSQDGHQWTLFFQNGKVKVFQGNQDSFTPVVNSLDPPLLTRYLRIHPQSWVHQIALRMEVLGCEAQDLY
modifications: oligosaccharides observed linked to Asn 1810 and Asn 2118
notes: Residues 1649-1690 and 1714-1724 were not modeled; also called a3-A3-C1-C2
Take B1: the binding result in series [1] is reported as “binds”.

B2: B-domain deleted human Factor VIII (other)
heavy: T1 sequence (heavy)
light: B1 light
modifications: oligosaccharides observed linked to Asn 1810 and Asn 2118; oligosaccharide observed linked to Asn 239
notes: Expressed in CHO cells and crystallised; heterodimer of heavy and light chain with 2 Cu2+, 1 Ca2+ and three carbohydrate moieties; also called B-domain deleted recombinant Factor VIII (Wyeth); B domain-deleted FVIII
For the molecule B2, the binding result in series [2] is reported as “binds”.
